This passage reports stoichiometry N results from PMC2112703.

The target in this assay is rabbit skeletal muscle actin (rabbit), P68135. In words: cross-linking. To be noted: remark: other sources report otherwise.

B1: depactin (actin-depolymerizing protein from starfish oocytes), P20690 1-150 (natural protein)
chain: PQSGTALDENVKEEIRAFKMDQSKVKVPWMLLEIVQNDDRIDVVKVTKKAGPSDNLETLREELKQREVVYFVLDYEPSEEKRAKHNIPKGKTYPLTCFWSMETANIKLKMKYSSTVGTLKSATSTLKTYLEAHDFDDLSEEAIGDKIKNF
Usually stoichiometry N stands for a count of units in the complex or per binding partner. On to B1, for which the stoichiometry N was 1.
